Key:
Experiment in all cases: cell-based or functional assay
[1] = target: RPS6KA4 (MSK2) Ribosomal protein S6 kinase, 90 kDa, polypeptide 4 (UniProt O75676 1-772, limits assumed)
[2] = target: RPS6KB1 (p70S6K) Ribosomal protein S6 kinase, 70 kDa, polypeptide 1 (human (printed as (h)), UniProt P23443 1-421, limits assumed)
[3] = target: PAK4 P21(CDKN1A)-activated kinase 4 (UniProt O96013 1-591, limits assumed)
[4] = target: T1, MATK (HYL) (UniProt P42679 1-507, limits assumed)
T1 sequence (looked up): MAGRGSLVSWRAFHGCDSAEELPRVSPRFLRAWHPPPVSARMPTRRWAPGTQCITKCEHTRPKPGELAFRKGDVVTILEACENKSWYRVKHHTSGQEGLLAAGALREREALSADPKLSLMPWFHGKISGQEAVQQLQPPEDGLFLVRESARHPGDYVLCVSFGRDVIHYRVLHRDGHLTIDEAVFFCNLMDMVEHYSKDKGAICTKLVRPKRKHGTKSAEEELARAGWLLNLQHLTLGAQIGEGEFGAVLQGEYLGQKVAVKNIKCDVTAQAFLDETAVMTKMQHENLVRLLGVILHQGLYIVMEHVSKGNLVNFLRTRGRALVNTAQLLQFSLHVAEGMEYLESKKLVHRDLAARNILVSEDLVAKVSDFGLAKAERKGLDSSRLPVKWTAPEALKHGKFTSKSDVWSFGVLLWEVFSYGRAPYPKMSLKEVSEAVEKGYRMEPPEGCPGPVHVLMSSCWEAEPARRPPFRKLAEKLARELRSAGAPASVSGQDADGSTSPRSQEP

[5] = target: GRK5 (UniProt P34947 1-590, limits assumed)
Chain of GRK5 (P34947 whole entry): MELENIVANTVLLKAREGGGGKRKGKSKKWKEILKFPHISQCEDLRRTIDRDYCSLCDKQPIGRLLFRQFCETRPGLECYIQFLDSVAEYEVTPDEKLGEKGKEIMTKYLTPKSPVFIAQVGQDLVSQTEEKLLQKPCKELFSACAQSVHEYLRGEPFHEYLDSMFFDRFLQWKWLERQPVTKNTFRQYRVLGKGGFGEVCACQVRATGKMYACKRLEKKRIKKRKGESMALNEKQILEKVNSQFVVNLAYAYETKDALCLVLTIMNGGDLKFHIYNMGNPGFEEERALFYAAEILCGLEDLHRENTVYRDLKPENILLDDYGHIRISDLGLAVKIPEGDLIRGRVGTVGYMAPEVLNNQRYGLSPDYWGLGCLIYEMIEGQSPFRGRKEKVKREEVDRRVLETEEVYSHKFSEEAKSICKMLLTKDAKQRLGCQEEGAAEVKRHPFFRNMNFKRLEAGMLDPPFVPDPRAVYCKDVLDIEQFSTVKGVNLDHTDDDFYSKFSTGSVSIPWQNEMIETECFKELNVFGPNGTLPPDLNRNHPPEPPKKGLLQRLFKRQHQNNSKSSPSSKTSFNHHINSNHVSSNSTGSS

[6] = target: T2, NEK9 NIMA (never in mitosis gene a)-related kinase 9 (UniProt Q8TD19 1-979, limits assumed)
T2 sequence (looked up): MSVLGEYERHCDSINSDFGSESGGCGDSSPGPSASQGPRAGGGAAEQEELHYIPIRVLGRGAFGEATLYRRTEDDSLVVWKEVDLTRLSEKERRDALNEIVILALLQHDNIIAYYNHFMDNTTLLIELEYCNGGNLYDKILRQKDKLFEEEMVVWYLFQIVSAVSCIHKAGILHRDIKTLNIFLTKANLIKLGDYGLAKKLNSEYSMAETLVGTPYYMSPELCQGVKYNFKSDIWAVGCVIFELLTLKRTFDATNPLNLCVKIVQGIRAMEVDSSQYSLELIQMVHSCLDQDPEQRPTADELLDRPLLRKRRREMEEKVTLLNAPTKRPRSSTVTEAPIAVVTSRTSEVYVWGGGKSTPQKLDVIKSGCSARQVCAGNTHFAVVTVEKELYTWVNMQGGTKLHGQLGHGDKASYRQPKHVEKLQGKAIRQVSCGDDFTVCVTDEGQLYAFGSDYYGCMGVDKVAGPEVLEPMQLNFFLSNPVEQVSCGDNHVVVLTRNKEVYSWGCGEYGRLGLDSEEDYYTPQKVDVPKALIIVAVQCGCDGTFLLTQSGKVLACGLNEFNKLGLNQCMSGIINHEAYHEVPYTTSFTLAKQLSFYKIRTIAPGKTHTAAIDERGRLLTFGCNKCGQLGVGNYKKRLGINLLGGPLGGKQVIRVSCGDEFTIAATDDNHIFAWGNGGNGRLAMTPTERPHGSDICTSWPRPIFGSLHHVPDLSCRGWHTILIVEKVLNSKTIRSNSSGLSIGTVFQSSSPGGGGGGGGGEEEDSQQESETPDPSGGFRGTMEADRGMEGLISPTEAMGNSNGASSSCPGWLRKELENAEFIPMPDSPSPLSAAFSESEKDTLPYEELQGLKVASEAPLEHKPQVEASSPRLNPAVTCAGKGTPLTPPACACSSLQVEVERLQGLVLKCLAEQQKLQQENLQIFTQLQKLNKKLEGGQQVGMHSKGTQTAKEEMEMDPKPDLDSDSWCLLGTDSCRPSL

[7] = target: T3, DYRK4 (UniProt Q9NR20 1-520, limits assumed)
T3 sequence (looked up): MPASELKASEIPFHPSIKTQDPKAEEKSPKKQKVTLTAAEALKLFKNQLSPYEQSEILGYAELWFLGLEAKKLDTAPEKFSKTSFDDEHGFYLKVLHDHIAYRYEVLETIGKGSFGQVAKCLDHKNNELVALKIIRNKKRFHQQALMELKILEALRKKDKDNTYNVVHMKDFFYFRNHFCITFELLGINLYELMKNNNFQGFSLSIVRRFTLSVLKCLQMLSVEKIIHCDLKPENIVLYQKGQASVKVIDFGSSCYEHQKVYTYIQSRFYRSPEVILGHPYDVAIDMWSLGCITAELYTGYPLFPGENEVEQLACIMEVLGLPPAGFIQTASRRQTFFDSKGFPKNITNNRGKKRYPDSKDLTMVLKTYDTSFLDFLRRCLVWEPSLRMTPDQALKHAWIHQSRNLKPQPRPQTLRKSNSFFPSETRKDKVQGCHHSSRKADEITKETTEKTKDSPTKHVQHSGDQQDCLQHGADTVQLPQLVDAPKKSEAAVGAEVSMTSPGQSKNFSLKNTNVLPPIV

[8] = target: GRK6 (UniProt P43250 1-576, limits assumed)
Chain of GRK6 (P43250 whole entry): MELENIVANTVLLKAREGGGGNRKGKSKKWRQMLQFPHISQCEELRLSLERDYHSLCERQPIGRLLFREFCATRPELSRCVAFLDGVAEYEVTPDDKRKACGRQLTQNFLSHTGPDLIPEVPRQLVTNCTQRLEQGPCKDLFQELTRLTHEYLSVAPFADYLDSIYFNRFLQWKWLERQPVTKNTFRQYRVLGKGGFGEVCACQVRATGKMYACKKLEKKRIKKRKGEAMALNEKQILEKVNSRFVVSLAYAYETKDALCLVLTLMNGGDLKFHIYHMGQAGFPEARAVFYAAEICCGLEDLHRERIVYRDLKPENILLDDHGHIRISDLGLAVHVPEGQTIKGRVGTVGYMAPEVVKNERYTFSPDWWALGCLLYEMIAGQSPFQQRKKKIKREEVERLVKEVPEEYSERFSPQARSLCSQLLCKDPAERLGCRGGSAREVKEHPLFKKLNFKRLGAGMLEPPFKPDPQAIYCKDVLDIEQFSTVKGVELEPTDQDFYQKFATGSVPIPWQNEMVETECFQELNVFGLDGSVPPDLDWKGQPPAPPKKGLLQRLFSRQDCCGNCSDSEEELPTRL

[9] = target: CAMK2A (CaMKII alpha) (UniProt Q9UQM7 1-478, limits assumed)
Chain of CAMK2A (CaMKII alpha) (Q9UQM7 whole entry): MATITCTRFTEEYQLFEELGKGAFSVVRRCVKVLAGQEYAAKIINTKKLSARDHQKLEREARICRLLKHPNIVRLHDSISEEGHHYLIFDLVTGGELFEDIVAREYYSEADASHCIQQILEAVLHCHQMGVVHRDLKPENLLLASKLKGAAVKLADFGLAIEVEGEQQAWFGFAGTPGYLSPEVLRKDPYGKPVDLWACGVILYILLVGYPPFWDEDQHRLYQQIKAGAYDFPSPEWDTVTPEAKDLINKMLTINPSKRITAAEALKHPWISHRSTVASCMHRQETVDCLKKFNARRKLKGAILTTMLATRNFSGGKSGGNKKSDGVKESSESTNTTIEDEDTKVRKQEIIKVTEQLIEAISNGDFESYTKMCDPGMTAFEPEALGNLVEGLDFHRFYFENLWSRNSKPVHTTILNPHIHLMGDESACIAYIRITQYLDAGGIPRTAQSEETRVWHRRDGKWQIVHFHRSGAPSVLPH

[10] = target: MAPK10 (JNK3) Mitogen-activated protein kinase 10 (UniProt P53779 1-464, limits assumed)
Chain of MAPK10 (JNK3) Mitogen-activated protein kinase 10 (P53779 whole entry): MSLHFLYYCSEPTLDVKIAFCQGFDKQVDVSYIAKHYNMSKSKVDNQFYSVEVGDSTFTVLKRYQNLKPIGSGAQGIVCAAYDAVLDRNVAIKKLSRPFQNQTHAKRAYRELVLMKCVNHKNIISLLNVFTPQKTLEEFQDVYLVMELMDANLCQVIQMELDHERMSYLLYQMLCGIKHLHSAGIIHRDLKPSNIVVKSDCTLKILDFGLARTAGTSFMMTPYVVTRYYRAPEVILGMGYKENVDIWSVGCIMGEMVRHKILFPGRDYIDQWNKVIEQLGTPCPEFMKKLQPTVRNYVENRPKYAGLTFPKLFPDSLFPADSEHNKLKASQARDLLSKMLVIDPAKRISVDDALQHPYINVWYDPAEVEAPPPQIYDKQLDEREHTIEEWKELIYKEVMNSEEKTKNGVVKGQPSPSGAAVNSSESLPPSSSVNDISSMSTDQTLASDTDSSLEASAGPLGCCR

[11] = target: T4, TYK2 (UniProt P29597 871-1187, limits assumed)
T4 sequence (looked up): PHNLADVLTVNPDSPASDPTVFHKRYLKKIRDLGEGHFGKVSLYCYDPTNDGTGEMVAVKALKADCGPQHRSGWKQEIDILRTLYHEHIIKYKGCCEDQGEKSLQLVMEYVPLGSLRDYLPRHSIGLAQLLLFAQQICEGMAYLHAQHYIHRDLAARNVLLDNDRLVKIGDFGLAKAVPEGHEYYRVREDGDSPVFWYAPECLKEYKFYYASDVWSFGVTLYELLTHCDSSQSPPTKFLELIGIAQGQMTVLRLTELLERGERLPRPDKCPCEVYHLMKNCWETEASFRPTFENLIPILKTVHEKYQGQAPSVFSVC

Chain of PAK4 P21(CDKN1A)-activated kinase 4 (O96013 whole entry): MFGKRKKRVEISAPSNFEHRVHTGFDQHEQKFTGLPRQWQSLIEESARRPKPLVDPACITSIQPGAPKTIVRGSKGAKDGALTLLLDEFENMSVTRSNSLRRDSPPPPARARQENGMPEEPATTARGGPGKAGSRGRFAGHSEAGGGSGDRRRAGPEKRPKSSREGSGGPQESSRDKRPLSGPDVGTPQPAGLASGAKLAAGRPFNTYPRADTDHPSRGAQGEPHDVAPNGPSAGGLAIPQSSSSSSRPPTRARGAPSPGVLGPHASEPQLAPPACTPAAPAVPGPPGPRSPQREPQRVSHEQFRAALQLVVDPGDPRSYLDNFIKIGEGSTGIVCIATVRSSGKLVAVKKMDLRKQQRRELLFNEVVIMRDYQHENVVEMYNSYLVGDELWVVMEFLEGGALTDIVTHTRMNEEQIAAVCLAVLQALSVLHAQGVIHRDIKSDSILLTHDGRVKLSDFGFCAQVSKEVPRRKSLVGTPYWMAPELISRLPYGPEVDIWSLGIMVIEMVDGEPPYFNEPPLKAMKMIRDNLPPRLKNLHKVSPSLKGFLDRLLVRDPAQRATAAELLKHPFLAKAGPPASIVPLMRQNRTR
Chain of RPS6KA4 (MSK2) Ribosomal protein S6 kinase, 90 kDa, polypeptide 4 (O75676 whole entry): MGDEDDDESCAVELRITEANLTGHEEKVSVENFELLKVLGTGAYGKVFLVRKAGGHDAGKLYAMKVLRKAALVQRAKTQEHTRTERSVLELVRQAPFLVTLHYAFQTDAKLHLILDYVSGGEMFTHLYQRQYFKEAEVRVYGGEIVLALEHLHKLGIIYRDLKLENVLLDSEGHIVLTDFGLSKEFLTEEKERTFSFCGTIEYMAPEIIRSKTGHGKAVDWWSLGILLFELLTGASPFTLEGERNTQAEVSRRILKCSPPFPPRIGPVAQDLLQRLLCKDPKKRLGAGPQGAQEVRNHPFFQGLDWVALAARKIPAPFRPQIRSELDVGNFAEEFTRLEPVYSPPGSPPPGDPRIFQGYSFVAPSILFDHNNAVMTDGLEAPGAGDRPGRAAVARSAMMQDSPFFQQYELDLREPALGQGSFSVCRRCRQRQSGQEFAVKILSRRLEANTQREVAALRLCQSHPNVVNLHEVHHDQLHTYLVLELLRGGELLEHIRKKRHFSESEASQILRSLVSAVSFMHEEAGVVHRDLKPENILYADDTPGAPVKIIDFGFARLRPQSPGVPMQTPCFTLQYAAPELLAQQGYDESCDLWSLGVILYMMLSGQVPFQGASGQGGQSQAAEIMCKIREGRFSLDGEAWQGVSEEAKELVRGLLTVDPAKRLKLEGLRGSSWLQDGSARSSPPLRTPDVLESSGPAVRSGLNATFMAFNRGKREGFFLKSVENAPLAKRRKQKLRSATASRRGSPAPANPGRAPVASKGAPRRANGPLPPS
Chain of RPS6KB1 (p70S6K) Ribosomal protein S6 kinase, 70 kDa, polypeptide 1 (human (printed as (h)), UniProt P23443 1-421, limits assumed) (P23443 1-421 limits assumed): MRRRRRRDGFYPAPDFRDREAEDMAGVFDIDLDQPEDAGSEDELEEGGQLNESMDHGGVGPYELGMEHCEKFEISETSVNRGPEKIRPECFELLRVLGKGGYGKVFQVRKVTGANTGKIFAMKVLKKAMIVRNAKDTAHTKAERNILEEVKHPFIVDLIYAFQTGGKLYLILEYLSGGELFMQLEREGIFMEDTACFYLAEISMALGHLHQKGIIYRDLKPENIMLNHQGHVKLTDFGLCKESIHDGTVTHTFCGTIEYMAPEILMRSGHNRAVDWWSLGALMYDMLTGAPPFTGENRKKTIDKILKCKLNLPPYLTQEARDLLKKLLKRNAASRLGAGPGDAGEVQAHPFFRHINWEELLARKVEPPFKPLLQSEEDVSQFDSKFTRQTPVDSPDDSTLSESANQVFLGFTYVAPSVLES

B1: D3 peptide (peptide)
peptide: SGRPPMIVWFNRPFLIAVSHTHGQTILFMAKVINPVGA
For B1, the “% Inhibition mean” value [1] was 96.8%, the “% Inhibition mean” value [2] was 100% and the “% Inhibition mean” value [3] was 47%. For the same binder, the “% Inhibition mean” value [4] was 55.6%, the “% Inhibition mean” value [5] was 50.8% and the “% Inhibition mean” value [6] was 108%. The “% Inhibition mean” value [7] was 61.2%, the “% Inhibition mean” value [8] was 57.1% and the “% Inhibition mean” value [9] was 82.6%. For the same binder, the “% Inhibition mean” value [10] was 90.7% and the “% Inhibition mean” value [11] was 70.5%.

— patent publication US20100184658A1 (published 2010)
